Measured values from paper PMC9779223, “Impact of Troponin in Cardiomyopathy Development Caused by Mutations in Tropomyosin” (International Journal of Molecular Sciences, 2022).

Target: T1, Tropomyosin C-terminal fragment Tpm WT 134–284 (human, UniProt P09493 134-284)
T1 construct: also called Tpm C-end; source: E. coli C41 (DE3), purified (anion exchange, HiTrap Q HP)
Assay: ITC; MicroCal PEAQ-ITC, 25 °C; 30 mM HEPES-Na pH 7.3, 100 mM NaCl, 1 mM DTT; sample in the cell 30 to 60 µM, ligand in the syringe 200 to 700 µM; one set of binding sites
Settings: both partners purified

T1 sequence (P09493 134-284): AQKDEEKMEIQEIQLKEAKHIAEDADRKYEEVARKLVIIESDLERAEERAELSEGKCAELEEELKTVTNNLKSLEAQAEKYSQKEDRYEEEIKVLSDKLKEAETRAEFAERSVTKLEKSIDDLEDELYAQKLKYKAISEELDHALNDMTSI

Kd: 10.2 ± 0.3 µM | dH: 1.95 ± 0.15 kcal/mol | stoichiometry N: 1.17 ± 0.05
B1: Tropomyosin N-terminal fragment Tpm WT 1–133 (domain or fragment)
chain: not shown
notes: human tropomyosin Tpm1.1 (alpha-Tpm), residues 1-133 (ends at the trypsin site Arg133); Made from the full Tpm1.1 construct by primers that put a stop after Arg133; also called Tpm_(1–133); Tpm N-end; source: E. coli C41 (DE3), purified (anion exchange, HiTrap Q HP)
